Experimental data reported in PMC9547286, “LOXL2-dependent deacetylation of aldolase A induces metabolic reprogramming and tumor progression^☆” (Redox Biology, 2022).

Target: T1, LOXL2-Flag (human, UniProt Q9Y4K0 26-774)
T1 construct: Lysyl oxidase-like 2 (LOXL2), human, full-length form (774 aa by the printed limits of its C-terminal domain); also called Flag-tagged LOXL2; source: HEK293T, transfected, immunopurified
T1 sequence (looked up): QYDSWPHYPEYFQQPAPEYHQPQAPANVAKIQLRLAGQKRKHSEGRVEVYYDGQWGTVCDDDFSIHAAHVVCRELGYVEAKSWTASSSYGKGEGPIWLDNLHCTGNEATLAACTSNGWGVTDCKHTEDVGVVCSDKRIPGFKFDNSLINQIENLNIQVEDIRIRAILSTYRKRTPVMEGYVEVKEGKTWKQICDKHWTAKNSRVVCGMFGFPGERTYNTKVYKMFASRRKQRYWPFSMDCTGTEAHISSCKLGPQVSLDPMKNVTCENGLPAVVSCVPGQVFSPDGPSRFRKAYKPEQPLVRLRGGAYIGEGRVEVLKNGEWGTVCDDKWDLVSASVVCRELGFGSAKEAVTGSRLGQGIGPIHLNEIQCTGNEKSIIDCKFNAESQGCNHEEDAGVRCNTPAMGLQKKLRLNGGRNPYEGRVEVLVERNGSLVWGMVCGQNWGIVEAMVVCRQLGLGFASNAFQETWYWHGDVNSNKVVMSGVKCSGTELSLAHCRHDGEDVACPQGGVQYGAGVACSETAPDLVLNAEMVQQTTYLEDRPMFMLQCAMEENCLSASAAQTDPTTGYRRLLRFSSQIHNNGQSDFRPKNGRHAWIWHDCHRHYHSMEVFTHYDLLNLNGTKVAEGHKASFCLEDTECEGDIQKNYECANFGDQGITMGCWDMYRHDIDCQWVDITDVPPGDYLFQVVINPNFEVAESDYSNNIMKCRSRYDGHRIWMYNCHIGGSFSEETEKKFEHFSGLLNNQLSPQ
Assay: pull-down; Purified GST-aldolase A or GST from bacteria on glutathione resins, incubated with immunopurified LOXL2-Flag or L2Δ13-Flag from HEK293T at 4 °C for 2 h; immunoblot with anti-Flag
Conditions: both partners purified

B1: GST-aldolase A (enzyme, human)
chain: PYQYPALTPEQKKELSDIAHRIVAPGKGILAADESTGSIAKRLQSIGTENTEENRRFYRQLLLTADDRVNPCIGGVILFHETLYQKADDGRPFPQVIKSKGGVVGIKVDKGVVPLAGTNGETTTQGLDGLSERCAQYKKDGADFAKWRCVLKIGEHTPSALAIMENANVLARYASICQQNGIVPIVEPEILPDGDHDLKRCQYVTEKVLAAVYKALSDHHIYLEGTLLKPNMVTPGHACTQKFSHEEIAMATVTALRRTVPPAVTGITFLSGGQSEEEASINLNAINKCPLLKPWALTFSYGRALQASALKAWGGKKENLKAAQEEYVKRALANSLACQGKYTPSGQAGAAASESLFVSNHAY
notes: Aldolase A (fructose-bisphosphate aldolase A), human; also called GST-tagged aldolase A; GST-Aldolase A fusion protein; source: bacteria, purified recombinant, retained on glutathione resins
binding result: binds
